Test results published in article PMC5955610 (Structure (London, England : 1993), 2010).

Target: T1, RMI1C (C-terminal domain of human RMI1, residues 475-625) (human, UniProt Q9H9A7 475-625, Se-Met substituted in the crystals)
T1 sequence (looked up): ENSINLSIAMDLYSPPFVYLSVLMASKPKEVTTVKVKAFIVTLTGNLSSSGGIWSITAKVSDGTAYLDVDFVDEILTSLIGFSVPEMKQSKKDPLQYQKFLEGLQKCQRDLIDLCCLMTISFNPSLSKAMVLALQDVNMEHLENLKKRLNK
Experiment: crystal structure + SEC

stoichiometry N: 1 RMI1C:RMI2
B1: RMI2 (residues 6-147) (domain or fragment, human, UniProt Q96E14 6-147, looked up)
chain: DSFSGGPAGVRLPRSPPLKVLAEQLRRDAEGGPGAWRLSRAAAGRGPLDLAAVWMQGRVVMADRGEARLRDPSGDFSVRGLERVPRGRPCLVPGKYVMVMGVVQACSPEPCLQAVKMTDLSDNPIHESMWELEVEDLHRNIP
modifications: Se-Met substituted in the crystals
